Measurements: IntAct's records for PubMed 31515488

B1: PIH1 domain-containing protein 2 (Homo sapiens), Q8WWB5 (parent)
chain: METSSKGLLTQVTQFWNLLDDLAQSDPEGYEKFIQQQLKEGKQLCAAPEPQLCLQTRILKPKEKILFINLCQWTRIPAPQSTTHPVPLTVGKPEDTTEISDAYTVIDVAYNPDVLHAAEKDQVKKNQLIQMAMKCIEEKFQFTLSHSYHITKFRIKGSIQRMKQNLMGIQTDSIDLREKMRRELTLGQIRSSTMSNPDHFPQLLLPKDQVSGKAVCLIEEISSTEIQVEMKMPAYELKIVHDHSEKPLKIELKVELPGINSVSLCDLSVSEDDLLIEVSEKYRLHLNLPKLIDTEMTTAKFIKEKSTLIITMPLV
B2: Protein FAM9B (Homo sapiens), Q8IZU0 (parent)
chain: MAAWGKKHAGKDPVRDECEERNRFTETREEDVTDEHGEREPFAETDEHTGANTKKPEDTAEDLTAKRKRMKMDKTCSKTKNKSKHALRKKQLKRQKRDYIHSLKLLNVLEEYITDEQKEEEEEEGEEEELIRIFQEQQKKWQQYRSVRRERLKEMKLLRDQFVKALEDFEDLCDRVFSDEDSELDN
partner: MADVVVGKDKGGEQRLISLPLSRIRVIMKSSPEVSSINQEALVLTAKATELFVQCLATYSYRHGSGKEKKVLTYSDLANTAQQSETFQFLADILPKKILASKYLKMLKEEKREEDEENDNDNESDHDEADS
B3: ATP-binding cassette sub-family F member 3 (Homo sapiens), Q9NUQ8 (parent)
chain: MATCAEILRSEFPEIDGQVFDYVTGVLHSGSADFESVDDLVEAVGELLQEVSGDSKDDAGIRAVCQRMYNTLRLAEPQSQGNSQVLLDAPIQLSKITENYDCGTKLPGLLKREQSSTVNAKKLEKAEARLKAKQEKRSEKDTLKTSNPLVLEEASASQAGSRKESRLESSGKNKSYDVRIENFDVSFGDRVLLAGADVNLAWGRRYGLVGRNGLGKTTLLKMLATRSLRVPAHISLLHVEQEVAGDDTPALQSVLESDSVREDLLRRERELTAQIAAGRAEGSEAAELAEIYAKLEEIEADKAPARASVILAGLGFTPKMQQQPTREFSGGWRMRLALARALFARPDLLLLDEPTNMLDVRAILWLENYLQTWPSTILVVSHDRNFLNAIATDIIHLHSQRLDGYRGDFETFIKSKQERLLNQQREYEAQQQYRQHIQVFIDRFRYNANRASQVQSKLKMLEKLPELKPVDKESEVVMKFPDGFEKFSPPILQLDEVDFYYDPKHVIFSRLSVSADLESRICVVGENGAGKSTMLKLLLGDLAPVRGIRHAHRNLKIGYFSQHHVEQLDLNVSAVELLARKFPGRPEEEYRHQLGRYGISGELAMRPLASLSGGQKSRVAFAQMTMPCPNFYILDEPTNHLDMETIEALGRALNNFRGGVILVSHDERFIRLVCRELWVCEGGGVTRVEGGFDQYRALLQEQFRREGFL
partner: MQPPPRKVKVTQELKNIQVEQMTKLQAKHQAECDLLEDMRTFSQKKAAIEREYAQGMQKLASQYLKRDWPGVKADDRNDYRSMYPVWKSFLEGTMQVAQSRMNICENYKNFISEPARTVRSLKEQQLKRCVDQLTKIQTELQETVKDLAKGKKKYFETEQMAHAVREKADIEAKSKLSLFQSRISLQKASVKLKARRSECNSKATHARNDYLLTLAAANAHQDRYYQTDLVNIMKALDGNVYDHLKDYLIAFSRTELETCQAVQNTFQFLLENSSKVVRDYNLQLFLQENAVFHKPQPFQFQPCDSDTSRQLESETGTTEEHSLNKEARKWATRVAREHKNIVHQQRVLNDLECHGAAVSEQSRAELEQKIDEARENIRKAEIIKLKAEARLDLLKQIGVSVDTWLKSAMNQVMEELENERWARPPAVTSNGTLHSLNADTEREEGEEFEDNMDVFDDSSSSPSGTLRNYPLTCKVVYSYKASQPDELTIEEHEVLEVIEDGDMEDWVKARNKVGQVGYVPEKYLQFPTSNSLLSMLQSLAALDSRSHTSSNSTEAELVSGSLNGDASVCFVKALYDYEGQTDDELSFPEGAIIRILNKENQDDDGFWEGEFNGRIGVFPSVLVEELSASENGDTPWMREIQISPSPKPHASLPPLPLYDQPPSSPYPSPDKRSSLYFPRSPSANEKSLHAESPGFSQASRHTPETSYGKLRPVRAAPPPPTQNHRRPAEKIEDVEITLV
B4: "Guanine nucleotide-binding protein G(T) subunit gamma-T1" (Homo sapiens), P63211 (parent)
chain: MPVINIEDLTEKDKLKMEVDQLKKEVTLERMLVSKCCEEVRDYVEERSGEDPLVKGIPEDKNPFKELKGGCVIS
partner: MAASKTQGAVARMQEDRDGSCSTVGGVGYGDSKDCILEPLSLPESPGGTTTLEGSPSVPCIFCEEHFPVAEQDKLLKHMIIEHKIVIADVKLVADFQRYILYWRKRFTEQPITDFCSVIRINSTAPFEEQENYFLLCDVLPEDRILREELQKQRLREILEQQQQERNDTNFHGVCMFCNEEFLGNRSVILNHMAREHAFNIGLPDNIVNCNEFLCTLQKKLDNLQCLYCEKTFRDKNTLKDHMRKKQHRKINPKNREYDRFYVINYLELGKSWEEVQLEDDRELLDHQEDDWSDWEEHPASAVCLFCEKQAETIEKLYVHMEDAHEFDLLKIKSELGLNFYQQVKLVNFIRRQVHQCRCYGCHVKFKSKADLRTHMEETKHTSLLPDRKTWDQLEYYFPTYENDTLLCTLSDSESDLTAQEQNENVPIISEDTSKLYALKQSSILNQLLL

Variants of: B1
Conditions: with cenpr_human ITGB3BP

How did the “effect of a mutation on the interaction” value turn out when A117V was run?
Its value is “with no effect”.

Which “effect of a mutation on the interaction” value does the source give for A102D here?
The value was “with no effect”.

Variants of: B1
Conditions: with if2b3_human IGF2BP3, O00425
Sequence of if2b3_human IGF2BP3, O00425 (O00425 whole entry): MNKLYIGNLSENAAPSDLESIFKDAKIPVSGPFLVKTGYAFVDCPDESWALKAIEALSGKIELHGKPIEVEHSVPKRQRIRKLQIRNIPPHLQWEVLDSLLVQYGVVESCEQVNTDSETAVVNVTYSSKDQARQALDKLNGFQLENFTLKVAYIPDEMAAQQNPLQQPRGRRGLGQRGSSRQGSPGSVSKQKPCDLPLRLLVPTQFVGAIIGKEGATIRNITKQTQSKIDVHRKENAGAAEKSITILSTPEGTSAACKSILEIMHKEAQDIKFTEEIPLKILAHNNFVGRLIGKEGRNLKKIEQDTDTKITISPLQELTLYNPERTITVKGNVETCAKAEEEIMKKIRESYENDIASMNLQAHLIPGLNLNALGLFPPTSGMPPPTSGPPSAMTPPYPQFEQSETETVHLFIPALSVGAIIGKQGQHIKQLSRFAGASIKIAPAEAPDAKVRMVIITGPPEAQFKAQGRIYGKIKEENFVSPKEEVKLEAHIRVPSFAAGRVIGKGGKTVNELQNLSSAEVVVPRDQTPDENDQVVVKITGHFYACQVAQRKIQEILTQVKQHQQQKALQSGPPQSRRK

For A117V, which “effect of a mutation on the interaction” value is on record?
Its value is “with no effect”.

A102D was tested. Which “effect of a mutation on the interaction” value did it give?
The value was “with no effect”.

Variants of: B1
Conditions: with if4a2_human EIF4A2, Q14240
Sequence of if4a2_human EIF4A2, Q14240 (Q14240 whole entry): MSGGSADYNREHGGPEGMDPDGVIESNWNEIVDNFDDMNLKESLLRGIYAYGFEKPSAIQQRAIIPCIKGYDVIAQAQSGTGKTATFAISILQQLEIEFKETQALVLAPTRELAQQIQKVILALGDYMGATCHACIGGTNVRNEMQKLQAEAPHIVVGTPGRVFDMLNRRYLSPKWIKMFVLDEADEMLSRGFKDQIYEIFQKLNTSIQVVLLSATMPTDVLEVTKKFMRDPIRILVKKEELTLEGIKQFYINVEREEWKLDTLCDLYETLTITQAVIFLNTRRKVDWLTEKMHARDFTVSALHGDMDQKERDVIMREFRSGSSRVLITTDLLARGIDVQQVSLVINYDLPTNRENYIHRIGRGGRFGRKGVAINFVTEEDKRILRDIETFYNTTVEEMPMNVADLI

With A117V as the variant, how does the “effect of a mutation on the interaction” value read?
The value was “with no effect”.

A102D was tested. Which “effect of a mutation on the interaction” value did it give?
Its value is “with no effect”.

Variants of: B1
Conditions: with gfap_human GFAP

With A117V as the variant, how does the “effect of a mutation on the interaction” value read?
Its value is “disrupting interaction strength”.

For A102D, which “effect of a mutation on the interaction” value is on record?
Its value is “with no effect”.

Variants of: B2
Conditions: with chrc1_human CHRAC1, Q9NRG0

R23H was tested. Which “effect of a mutation on the interaction” value did it give?
Its value is “with no effect”.

Variants of: B3
Conditions: with fcsd2_human FCHSD2, O94868

Which “effect of a mutation on the interaction” value does the source give for R510H here?
Its value is “with no effect”.

How did the “effect of a mutation on the interaction” value turn out when R340W was run?
The value was “with no effect”.

Variants of: B4
Conditions: with zn277_human ZNF277, Q9NRM2

How did the “effect of a mutation on the interaction” value turn out when E50K was run?
Its value is “with no effect”.
